Patent publication US20220289850 (published 2022)

Molecular target: T1, mouse integrin avb8 (mouse)
T1 chain 1: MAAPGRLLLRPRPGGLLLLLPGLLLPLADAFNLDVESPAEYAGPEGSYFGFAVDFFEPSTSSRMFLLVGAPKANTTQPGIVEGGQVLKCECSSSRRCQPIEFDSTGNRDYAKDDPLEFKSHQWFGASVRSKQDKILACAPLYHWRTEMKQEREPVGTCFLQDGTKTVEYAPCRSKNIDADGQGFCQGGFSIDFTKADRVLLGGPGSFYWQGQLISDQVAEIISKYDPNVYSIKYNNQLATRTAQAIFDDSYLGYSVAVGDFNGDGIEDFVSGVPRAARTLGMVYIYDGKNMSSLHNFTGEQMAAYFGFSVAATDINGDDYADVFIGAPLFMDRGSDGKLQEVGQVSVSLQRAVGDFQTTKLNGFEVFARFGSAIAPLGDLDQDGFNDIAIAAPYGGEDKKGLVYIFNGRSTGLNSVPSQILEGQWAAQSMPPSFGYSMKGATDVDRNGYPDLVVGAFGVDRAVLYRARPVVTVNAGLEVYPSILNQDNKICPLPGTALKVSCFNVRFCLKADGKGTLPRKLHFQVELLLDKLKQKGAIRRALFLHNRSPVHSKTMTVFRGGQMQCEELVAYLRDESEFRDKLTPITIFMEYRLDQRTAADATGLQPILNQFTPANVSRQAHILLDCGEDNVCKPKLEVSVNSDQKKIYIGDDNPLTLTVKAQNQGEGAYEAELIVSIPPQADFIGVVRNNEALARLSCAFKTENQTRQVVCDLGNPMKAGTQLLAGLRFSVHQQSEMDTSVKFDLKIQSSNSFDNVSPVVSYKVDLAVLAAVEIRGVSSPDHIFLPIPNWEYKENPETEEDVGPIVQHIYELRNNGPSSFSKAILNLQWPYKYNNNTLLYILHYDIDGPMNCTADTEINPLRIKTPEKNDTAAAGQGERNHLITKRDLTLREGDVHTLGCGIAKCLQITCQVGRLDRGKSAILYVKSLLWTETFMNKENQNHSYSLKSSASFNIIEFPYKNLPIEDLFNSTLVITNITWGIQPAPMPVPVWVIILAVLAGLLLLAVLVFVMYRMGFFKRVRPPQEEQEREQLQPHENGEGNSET
T1 chain 2: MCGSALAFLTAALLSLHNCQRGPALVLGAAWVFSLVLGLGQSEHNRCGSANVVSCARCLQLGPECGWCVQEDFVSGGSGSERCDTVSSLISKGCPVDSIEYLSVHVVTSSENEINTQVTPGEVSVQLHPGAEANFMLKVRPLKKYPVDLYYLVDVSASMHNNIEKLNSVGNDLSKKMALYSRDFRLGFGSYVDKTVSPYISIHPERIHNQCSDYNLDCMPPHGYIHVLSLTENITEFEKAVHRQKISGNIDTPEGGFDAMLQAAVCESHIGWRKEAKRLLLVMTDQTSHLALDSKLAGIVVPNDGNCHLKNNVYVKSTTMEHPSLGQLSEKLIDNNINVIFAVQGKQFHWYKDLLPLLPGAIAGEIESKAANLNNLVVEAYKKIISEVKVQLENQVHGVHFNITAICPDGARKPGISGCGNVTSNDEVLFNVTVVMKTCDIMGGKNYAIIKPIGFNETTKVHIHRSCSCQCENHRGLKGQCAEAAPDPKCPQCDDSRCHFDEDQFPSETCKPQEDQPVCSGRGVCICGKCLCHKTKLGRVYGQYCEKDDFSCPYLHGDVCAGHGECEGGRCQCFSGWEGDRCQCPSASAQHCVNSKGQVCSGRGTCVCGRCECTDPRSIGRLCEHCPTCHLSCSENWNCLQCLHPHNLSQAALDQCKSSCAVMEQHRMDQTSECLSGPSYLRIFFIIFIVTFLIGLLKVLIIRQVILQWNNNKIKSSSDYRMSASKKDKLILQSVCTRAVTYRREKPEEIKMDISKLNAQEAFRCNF
Assay: SPR

Kd: 0.0708 nM
B1: ADWA11 2.4 Fab (antibody, V domains shown)
VH: EVQLVESGGGLVQPGGSLRLSCAASGFNIKDYYMNWVRQAPGKGLEWVGWIDPDQGNTIYEPKFQGRFTISADTSKNSAYLQMNSLRAEDTAVYYCARRLLMDYWGQGTLVTVSS
VL: DIQMTQSPSSLSASVGDRVTITCRSTKSLSHFNGNTYLFWYQQKPGKAPKRLIYYMSSLASGVPSRFSGSGSGTDFTLTISSLQPEDFATYYCQQSLEYPFTFGGGTKVEIK
